In US20220144936A1:
Blank lines part the entries; values can stand above or below the substance they belong to.

Tests used:
[1] = biological target: recombinant human IL17A/F dimer protein (SinoBiological, Inc., CT047-HNAE) (human) (UniProt Q16552); assay: cell-based or functional assay
[2] = biological target: recombinant human IL17A protein (human) (UniProt Q16552); assay: cell-based or functional assay
[3] = biological target: recombinant human IL17A/F dimer protein (SinoBiological, Inc., CT047-HNAE) (human) (UniProt Q16552); assay: Octet (BLI), biotinylated IL17A/F, antibody 0.90-13.9 nM
[4] = biological target: recombinant human IL17A protein (human) (UniProt Q16552); assay: Octet (BLI), biotinylated IL17A, antibody 0.90-13.9 nM
[5] = biological target: recombinant human IL17A/F dimer protein (SinoBiological, Inc., CT047-HNAE) (human) (UniProt Q16552); assay: ELISA: IL17A/F coated at different concentrations, antibody fixed at 2 µg/mL, anti-human IgG Fc/HRP; EC50 is on the antigen concentration
[6] = biological target: recombinant human IL17A protein (human) (UniProt Q16552); assay: ELISA: IL17A coated at different concentrations, antibody fixed at 2 µg/mL, anti-human IgG Fc/HRP; EC50 is on the antigen concentration
[7] = biological target: recombinant human IL17A protein (human) (UniProt Q16552); assay: competition ELISA: IL17A coated, competitor IL17RA-His-biotin at 2 µg/mL, antibody varied
[8] = biological target: recombinant human IL17A/F dimer protein (SinoBiological, Inc., CT047-HNAE) (human) (UniProt Q16552); assay: competition ELISA: IL17RA-Fc coated (competitor), IL17A/F-Biotin at 0.8 µg/mL, antibody varied

Sequence of recombinant human IL17A protein (human) (Q16552 24-155 limits assumed): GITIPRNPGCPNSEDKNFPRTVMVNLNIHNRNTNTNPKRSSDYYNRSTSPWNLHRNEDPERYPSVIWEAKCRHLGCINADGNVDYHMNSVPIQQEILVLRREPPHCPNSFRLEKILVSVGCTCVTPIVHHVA
Sequence of recombinant human IL17A/F dimer protein (SinoBiological, Inc., CT047-HNAE) (human) (Q16552 24-155 limits assumed, chain 1 of 2): as the sequence (Q16552 24-155 limits assumed) above
Sequence of recombinant human IL17A/F dimer protein (SinoBiological, Inc., CT047-HNAE) (human) (Q96PD4 31-163 limits assumed, chain 2 of 2, further chain): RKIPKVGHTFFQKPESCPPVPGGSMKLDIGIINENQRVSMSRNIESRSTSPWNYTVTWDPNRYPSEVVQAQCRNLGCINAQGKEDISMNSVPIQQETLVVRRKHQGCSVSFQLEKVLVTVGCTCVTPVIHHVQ

- EC50 (µg/mL), blocking IL17A/F-induced IL6 secretion of HFF cells [1]: 2.25 µg/mL
- Maximum neutralization rate (%), IL17A/F-induced IL6 secretion of HFF cells [1]: 79.5%
- EC50 (µg/mL), blocking IL17A-induced IL6 secretion of HFF cells [2]: 0.22 µg/mL
- Maximum neutralization rate (%), IL17A-induced IL6 secretion of HFF cells [2]: 51.6%
- Kd [3]: 1.1 nM
- Kd [4]: 0.0955 nM
Substance: COSENTYX (Norvatis, SHM12) (antibody)

- EC50 [5]: 0.0639 µg/mL
- EC50 [6]: 0.0748 µg/mL
Substance: COSENTYX biosimilar (SinoCelltech Co., Ltd.) (antibody)

- EC50 (µg/mL), blocking IL17A/F-induced IL6 secretion of HFF cells [1]: 1.1 µg/mL
- Maximum neutralization rate (%), IL17A/F-induced IL6 secretion of HFF cells [1]: 76.3%
- EC50 (µg/mL), blocking IL17A-induced IL6 secretion of HFF cells [2]: 0.19 µg/mL
- Maximum neutralization rate (%), IL17A-induced IL6 secretion of HFF cells [2]: 95.9%
- IC50 [7]: 0.5 µg/mL
- maximum inhibition rate [7]: 89.5%
Substance: Taltz (Eli Lilly) (antibody)

- maximum inhibition rate [8]: 75%
- EC50 of blocking IL17A-induced IL-6 secretion of HFF cells [2]: 0.247 µg/mL
- maximum inhibition rate of IL17A-induced IL-6 secretion of HFF cells [2]: 97.3%
Substance: Taltz biosimilar (SinoCelltech Co., Ltd.) (antibody)
